According to doi:10.1101/192484 (bioRxiv, 2018):
Positions count from the first letter of the chain named. Numbers in names are those of the source. Like-named read-outs stand apart in the source and are kept apart here.

B1: ATL3 22-442 WT (soluble domain: GTPase domain, linker and 3HB middle domain) (domain or fragment, human, UniProt Q6DD88 22-442, looked up)
chain: SKPGPVQVVLVQKDQHSFELDEKALASILLQDHIRDLDVVVVSVAGAFRKGKSFILDFMLRYLYSQKESGHSNWLGDPEEPLTGFSWRGGSDPETTGIQIWSEVFTVEKPGGKKVAVVLMDTQGAFDSQSTVKDCATIFALSTMTSSVQIYNLSQNIQEDDLQQLQLFTEYGRLAMDEIFQKPFQTLMFLVRDWSFPYEYSYGLQGGMAFLDKRLQVKEHQHEEIQNVRNHIHSCFSDVTCFLLPHPGLQVATSPDFDGKLKDIAGEFKEQLQALIPYVLNPSKLMEKEINGSKVTCRGLLEYFKAYIKIYQGEDLPHPKSMLQATAEANNLAAAASAKDIYYNNMEEVCGGEKPYLSPDILEEKHCEFKQLALDHFKKTKKMGGKDFSFRYQQELEEEIKELYENFCKHNGSKNVFSTFR
B2: ATL3 22-442 Y192C (domain or fragment, human, UniProt Q6DD88 22-442, looked up)
chain: B1 chain with Y171C
B3: ATL3 22-442 P338R (domain or fragment, human, UniProt Q6DD88 22-442, looked up)
chain: B1 chain with P317R

Key:
SEC-MALS [1] = molecular target: the molecule itself; experiment: SEC-MALS
SEC-MALS [2] = molecular target: the molecule itself; experiment: SEC-MALS; remark: listed apart in the source

Protein	stoichiometry N (SEC-MALS [1])	stoichiometry N (SEC-MALS [2])
B1	2	–
B2	2	–
B3	–	2
